± gives the standard deviation of the averaged measurements.
Assay: total protein half-life in vivo (active degradation + dilution); higher = more stable protein
[1] = E. coli NCM3722 delta-clpP, growth: N-lim chemostat, doubling time 6 h
[2] = E. coli NCM3722 delta-hslV, growth: N-lim chemostat, doubling time 6 h
[3] = E. coli NCM3722 delta-lon, growth: N-lim chemostat, doubling time 6 h
[4] = E. coli NCM3722 delta-smpB, growth: N-lim chemostat, doubling time 6 h
[5] = wild type E. coli NCM3722, growth: C-lim chemostat, doubling time 6 h
[6] = wild type E. coli NCM3722, growth: C-lim chemostat, doubling time 12 h
[7] = wild type E. coli NCM3722, growth: N-lim chemostat, doubling time 6 h
[8] = wild type E. coli NCM3722, growth: N-lim chemostat, doubling time 12 h
[9] = wild type E. coli NCM3722, growth: P-lim chemostat, doubling time 6 h
[10] = wild type E. coli NCM3722, growth: P-lim chemostat, doubling time 12 h
[11] = E. coli NCM3722 delta-clpP delta-lon delta-hslV, growth: N-lim chemostat, doubling time 6 h
[12] = wild type E. coli NCM3722, growth: C-lim chemostat, doubling time 3 h

Sequence	total protein half-life in vivo [1]	total protein half-life in vivo [2]	total protein half-life in vivo [3]	total protein half-life in vivo [4]	total protein half-life in vivo [5]	total protein half-life in vivo [6]	total protein half-life in vivo [7]	total protein half-life in vivo [8]	total protein half-life in vivo [9]	total protein half-life in vivo [10]	total protein half-life in vivo [11]	total protein half-life in vivo [12]
MSWISPELIEILLTILKAVVILLVVVTCGAFMSFGERRLLGLFQNRYGPNRVGWGGSLQLVADMIKMFFKEDWIPKFSDRVIFTLAPMIAFTSLLLAFAIVPVSPGWVVADLNIGILFFLMMAGLAVYAVLFAGWSSNNKYSLLGAMRASAQTLSYEVFLGLSLMGVVAQAGSFNMTDIVNSQAHVWNVIPQFFGFITFAIAGVAVCHRHPFDQPEAEQELADGYHIEYSGMKFGLFFVGEYIGIVTISALMVTLFFGGWQGPLLPPFIWFALKTAFFMMMFILIRASLPRPRYDQVMSFGWKICLPLTLINLLVTAAVILWQAQ [P0AFD4]	6.49 ± 0.27 h	5.73 ± 0.34 h	6.09 ± 0.59 h	6.41 ± 1.4 h	6.75 ± 1.2 h	13.8 ± 2 h	6.53 ± 0.46 h	9.26 ± 2 h	6.237 ± 0.017 h	13.1 ± 3 h		
MMNPLIIKLGGVLLDSEEALERLFSALVNYRESHQRPLVIVHGGGCVVDELMKGLNLPVKKKNGLRVTPADQIDIITGALAGTANKTLLAWAKKHQIAAVGLFLGDGDSVKVTQLDEELGHVGLAQPGSPKLINSLLENGYLPVVSSIGVTDEGQLMNVNADQAATALAATLGADLILLSDVSGILDGKGQRIAEMTAAKAEQLIEQGIITDGMIVKVNAALDAARTLGRPVDIASWRHAEQLPALFNGMPMGTRILA [P0A6C8]	3.77 ± 0.19 h	3.36 ± 0.25 h	4.45 ± 0.17 h	3.02 ± 0.15 h	5.19 ± 0.41 h	10.3 ± 3.4 h	3.404 ± 0.033 h	4.813 ± 0.046 h	4.58 ± 0.39 h	7.92 ± 0.16 h	4.97 ± 0.82 h	2.84 ± 0.045 h
MNYQNDDLRIKEIKELLPPVALLEKFPATENAANTVAHARKAIHKILKGNDDRLLVVIGPCSIHDPVAAKEYATRLLALREELKDELEIVMRVYFEKPRTTVGWKGLINDPHMDNSFQINDGLRIARKLLLDINDSGLPAAGEFLDMITPQYLADLMSWGAIGARTTESQVHRELASGLSCPVGFKNGTDGTIKVAIDAINAAGAPHCFLSVTKWGHSAIVNTSGNGDCHIILRGGKEPNYSAKHVAEVKEGLNKAGLPAQVMIDFSHANSSKQFKKQMDVCADVCQQIAGGEKAIIGVMVESHLVEGNQSLESGEPLAYGKSITDACIGWEDTDALLRQLANAVKARRG [P0AB91]	2.92 ± 0.049 h	2.76 ± 0.068 h	3.62 ± 0.64 h	3.01 ± 0.16 h	5.81 ± 0.16 h	10.3 ± 0.25 h	3.02 ± 0.048 h	3.98 ± 0.2 h	5.41 ± 0.039 h	10.3 ± 0.3 h	3.65 ± 0.43 h	3.18 ± 0.28 h
MMKTMRIAAIPGDGIGKEVLPEGIRVLQAAAERWGFALSFEQMEWASCEYYSHHGKMMPDDWHEQLSRFDAIYFGAVGWPDTVPDHISLWGSLLKFRREFDQYVNLRPVRLFPGVPCPLAGKQPGDIDFYVVRENTEGEYSSLGGRVNEGTEHEVVIQESVFTRRGVDRILRYAFELAQSRPRKTLTSATKSNGLAISMPYWDERVEAMAENYPEIRWDKQHIDILCARFVMQPERFDVVVASNLFGDILSDLGPACTGTIGIAPSANLNPERTFPSLFEPVHGSAPDIYGKNIANPIATIWAGAMMLDFLGNGDERFQQAHNGILAAIEEVIAHGPKTPDMKGNATTPQVADAICKIILR	2.64 ± 0.46 h	2.66 ± 0.067 h	4.83 ± 2.4 h	2.68 ± 0.02 h	4.42 ± 0.51 h	7.5 ± 1.2 h	2.6337 ± 0.002 h	3.89 ± 0.11 h	4.47 ± 0.67 h	11.1 ± 0.13 h	4.1 ± 1.1 h	2.6 ± 0.4 h
MERLKRMSVFAKVVEFGSFTAAARQLQMSVSSISQTVSKLEDELQVKLLNRSTRSIGLTEAGRIYYQGCRRMLHEVQDVHEQLYAFNNTPIGTLRIGCSSTMAQNVLAGLTAKMLKEYPGLSVNLVTGIPAPDLIADGLDVVIRVGALQDSSLFSRRLGAMPMVVCAAKSYLTQYGIPEKPADLSSHSWLEYSVRPDNEFELIAPEGISTRLIPQGRFVTNDPMTLVRWLTAGAGIAYVPLMWVINEINRGELEILLPRYQSDPRPVYALYTEKDKLPLKVQVVINSLTDYFVEVGKLFQEMHGRGKEK	5.9 ± 0.28 h	6.51 ± 0.75 h	6.27 ± 0.31 h	6.03 ± 0.19 h		11 ± 0.14 h	5.69 ± 0.44 h	13.9 ± 0.74 h	5.75 ± 0.69 h	12.7 ± 0.32 h	5.96 ± 0.4 h	3.47 ± 0.21 h
MQRGIVWVVDDDSSIRWVLERALAGAGLTCTTFENGAEVLEALASKTPDVLLSDIRMPGMDGLALLKQIKQRHPMLPVIIMTAHSDLDAAVSAYQQGAFDYLPKPFDIDEAVALVERAISHYQEQQQPRNVQLNGPTTDIIGEAPAMQDVFRIIGRLSRSSISVLINGESGTGKELVAHALHRHSPRAKAPFIALNMAAIPKDLIESELFGHEKGAFTGANTIRQGRFEQADGGTLFLDEIGDMPLDVQTRLLRVLADGQFYRVGGYAPVKVDVRIIAATHQNLEQRVQEGKFREDLFHRLNVIRVHLPPLRERREDIPRLARHFLQVAARELGVEAKLLHPETEAALTRLAWPGNVRQLENTCRWLTVMAAGQEVLIQDLPGELFESTVAESTSQMQPDSWATLLAQWADRALRSGHQNLLSEAQPELERTLLTTALRHTQGHKQEAARLLGWGRNTLTRKLKELGME [P0AFB8]	5.18 ± 0.39 h	4.86 ± 0.35 h	5.263 ± 0.02 h	4.32 ± 0.052 h	4.85 ± 0.1 h	8.034 ± 0.033 h	4.72 ± 0.12 h	7.57 ± 0.25 h	4.22 ± 0.085 h	7.58 ± 0.097 h	5.64 ± 0.8 h	2.678 ± 0.0012 h
